The text below walks through data of PMC6554060 (Journal of molecular biology, 2019).

The target of the experiment is His6-tagged WT-αSyn (human, UniProt P37840 1-140). Description: BLI.

B1: E234G/H363A-HYPE (enzyme)
chain: GKLEARAALNQALEMKRQGKREKAQKLFMHALKMDPDFVDALTEFGIFSEEDKDIIQADYLYTRALTISPYHEKALVNRDRTLPLVEEIDQRYFSIIDSKVKKVMSIPKGNSALRRVMEETYYHHIYHTVAIGGNTLTLSEIRHILETRYAVPGKSLEEQNEVIGMHAAMKYINTTLVSRIGSVTISDVLEIHRRVLGYVDPVEAGRFRTTQVLVGHHIPPHPQDVEKQMQEFVQWLNSEEAMNLHPVEFAALAHYKLVYIAPFIDGNGRTSRLLMNLILMQAGYPPITIRKEQRSDYYHVLEAANEGDVRPFIRFIAKCTETTLDTLLFATTEYSVALPEAQPNHSGFKETLPVKP
On to B1, for which binding was characterised by a dissociation constant (Kd) of 15.3 µM.
